# According to patent publication US20060058231A1:
# Columns and labels:
# Experiment in all cases: ELISA-like plate assay, captured BMP-7 from conditioned media, receptor-Fc detection
# [1] = target: T1, BMPRII receptor-Fc fusion (UniProt Q13873)
# T1 sequence (looked up): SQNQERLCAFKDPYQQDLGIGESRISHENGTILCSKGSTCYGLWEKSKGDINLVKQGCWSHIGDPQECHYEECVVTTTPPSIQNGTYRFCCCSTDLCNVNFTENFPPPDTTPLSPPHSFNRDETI
# [2] = target: ActRIIa receptor-Fc fusion (UniProt P27037)
# [3] = target: BMPRIa receptor-Fc fusion (UniProt P36894)
# [4] = target: T2, BMPRIb receptor-Fc fusion (UniProt O00238)
# T2 sequence (looked up): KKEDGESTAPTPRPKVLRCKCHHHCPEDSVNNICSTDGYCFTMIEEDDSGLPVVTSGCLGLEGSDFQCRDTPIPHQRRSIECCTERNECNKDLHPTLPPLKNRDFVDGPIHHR
# Sequence of ActRIIa receptor-Fc fusion (P27037 20-134 limits assumed): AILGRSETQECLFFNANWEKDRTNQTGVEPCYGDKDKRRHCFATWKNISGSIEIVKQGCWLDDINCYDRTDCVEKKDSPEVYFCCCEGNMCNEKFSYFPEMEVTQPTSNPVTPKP
# Sequence of BMPRIa receptor-Fc fusion (P36894 24-152 limits assumed): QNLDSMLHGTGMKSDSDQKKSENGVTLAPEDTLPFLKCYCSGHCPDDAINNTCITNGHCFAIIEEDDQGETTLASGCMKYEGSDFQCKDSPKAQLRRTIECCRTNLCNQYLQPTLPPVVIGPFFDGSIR
substance,measurement,setting,value
BMP-7 variant L21E (from UniProt P18075 293-431 at identity 0.99)) (ligand),BMPRII binding (relative to wild type = 1.0) (relative to wild type),[1],0.07
BMP-7 variant W52P (from UniProt P18075 293-431 at identity 0.99)) (ligand),ActRIIa binding (relative to wild type = 1.0) (relative to wild type),[2],0.07
same,BMPRII binding (relative to wild type = 1.0) (relative to wild type),[1],0.01
same,BMPRIa binding (relative to wild type = 1.0) (relative to wild type),[3],0.03
BMP-7 variant F117S (from UniProt P18075 293-431 at identity 0.99)) (ligand),BMPRII binding (relative to wild type = 1.0) (relative to wild type),[1],-0.04
same,BMPRIb binding (relative to wild type = 1.0) (relative to wild type),[4],-0.08
BMP-7 variant R48E (from UniProt P18075 293-431 at identity 0.99)) (ligand),BMPRII binding (relative to wild type = 1.0) (relative to wild type),[1],-0.13
same,BMPRIb binding (relative to wild type = 1.0) (relative to wild type),[4],-0.51
BMP-7 variant F93A (from UniProt P18075 293-431 at identity 0.99)) (ligand),BMPRII binding (relative to wild type = 1.0) (relative to wild type),[1],0.09
BMP-7 variant S77H (from UniProt P18075 293-431 at identity 0.99)) (ligand),BMPRII binding (relative to wild type = 1.0) (relative to wild type),[1],0.08
BMP-7 variant L115A (from UniProt P18075 293-431 at identity 0.99)) (ligand),ActRIIa binding (relative to wild type = 1.0) (relative to wild type),[2],0.01
same,BMPRII binding (relative to wild type = 1.0) (relative to wild type),[1],-0.01
same,BMPRIa binding (relative to wild type = 1.0) (relative to wild type),[3],-0.02
BMP-7 variant W55A (from UniProt P18075 293-431 at identity 0.99)) (ligand),ActRIIa binding (relative to wild type = 1.0) (relative to wild type),[2],0.09
same,BMPRII binding (relative to wild type = 1.0) (relative to wild type),[1],0.03
